Source: the DeepSol protein solubility set

Experiment: soluble on expression in E. coli; label from the status in PepcDB or PDB records
In the case of “MIKISYSPYTLKPVQSLNAATAATAREGVLLKVEWNDGLYGFADLHPWPELGDLSLEEQLSDLRMGRMTTQIEQSIWLARRDALLRKEKKHVFDGGEKIKNNYLLSHFQDLKPGFLDGLKNEGYNTVKVKMGRDLQKEADMLTHIAASGMRMRLDFNALGSWQTFEKFMVNLPLTVRPLIEYVEDPFPFDFHAWGEARKLAKIALDNQYDKVPWGKIASAPFDVIVIKPAKTDVDKAVAQCQKWNLKLAVTSYMDHPVGVVHAVGVAMELKDKYGDMILESGCLTHRLYQMDSFAAELSTQGPYLLKNKGTGVGFDKLLEALTWYQLKVR”, the “soluble on expression in E. coli” value is reported as “soluble”. With “MGSDKIHHHHHHMVATENRMLMEIAAEISAREATLGFQEVKTKSRSAGLTAAFDIASVFFSSGCNVVVAFDRFASNWSDHSDHVDYAAQVAGFGASMLAYTVRRGQFDTAVRDIRDIKSEVDIPILLHDPIIDPYQIHEARVMGIDALQFPVWAMEQARLESLVDRTESLGMTAIVSVRNHEEAHRAVDAGATVVAIDITGYTGSLTLPEAFSGITQFMPKEVARIVLGGCSSPKELMRFARHSADAIFVPHADLATTKSLVTAGMHPACPSR” the “soluble on expression in E. coli” value was “not soluble”. For “MGMIVFVRFNSSYGFPVEVDSDTSILQLKEVVAKRQGVPADQLRVIFAGKELPNHLTVQNCDLEQQSIVHIVQRPRRR”, the “soluble on expression in E. coli” value was “soluble”. For “MGSDKIHHHHHHMKIAVLPGDGIGPEVVREALKVLEVVEKKTGKTFEKVFGHIGGDAIDRFGEPLPEETKKICLEADAIFLGSVGGPKWDDLPPEKRPEIGGLLALRKMLNLYANIRPIKVYRSLVHVSPLKEKVIGSGVDLVTVRELSYGVYYGQPRGLDEEKGFDTMIYDRKTVERIARTAFEIAKNRRKKVTSVDKANVLYSSMLWRKVVNEVAREYPDVELTHIYVDNAAMQLILKPSQFDVILTTNMFGDILSDESAALPGSLGLLPSASFGDKNLYEPAGGSAPDIAGKNIANPIAQILSLAMMLEHSFGMVEEARKIERAVELVIEEGYRTRDIAEDPEKAVSTSQMGDLICKKLEEIW”, the “soluble on expression in E. coli” value was “soluble”. For “MGSDKIHHHHHHMTSHRAEFPIKLRFLFEPARYKILYGGRGGAKSWGVARALLIQAAATPLRILCVREFQNSIVESVHHLLKAQIEAIGLNSFYEVHNNVIRGINGSEFIFAGLHSNVTRIKSFEGVDRVWVEEAQTVSKTSWDTLIPTIRKEGSEIWVTYNPELNTDETHQRFVVNPPAGAVVVKINWNDNPWFPEILRREKDGLKARDPDAYQNVWEGNCRVTLEGAVYAKELRLAQEEGRIRSVPYDEAKPVHTFFDLGWADNTSIWFAQTVGNELRLIDYYSNSQMPIQHYIGVLQNKGYMYGTDWLPHDARARTLATGRSVEEIMLAAGRKVRIVPNLSIHDGINAARTIFPRCYFDEQNCAEGLQSLRHYRFDVDRDSGQFSARPLHDYHSHAADAFRYFAMAIEEDKPAASARGINMKGWRA”, the “soluble on expression in E. coli” value was “not soluble”. With “KKKKKKDPNEPQKPVSAYALFFRDTQAAIKGQNPNATFGEVSKIVASMWDGLGEEQKQVYKKKTEAAKKEYLKQLAAYRASLVSKSYTD” the “soluble on expression in E. coli” value was “soluble”. In the case of “ASIYKNKKSHEQLSALKGSFCRNQFPGQSEVEHLTKVTGLSTREVRKWFSDRRYHCRNLKGSR”, the “soluble on expression in E. coli” value is reported as “soluble”. In the case of “MGSDKIHHHHHHMPGAYAHLTMVNLVKEPDRLEKQGFPPEAIVSILDYFRFCELGAVSPDYPYLDIAHSSAGQWADRMHYQRTGDMIKAGVEWIRRLDGASRQKAFSWLLGYTSHVVTDTTIHPVIELKVGEYQKNKDKHRICEMHQDAYIFQRLNLGEIGLAEHLDSGIWSCCDKPGSGKLDSVITRTWQSMLETCYAGACQTDPPLIDNWHGAFKFVVDKAEEGHALPPFARHVAANLGLTYPAVADLDPQYLESLATPLEAMSYDAIFDRALENVLATGSLIAKAVFQNDNSYATALVNCNLDTGKDDQGNHIYWKKGVS”, the “soluble on expression in E. coli” value is reported as “not soluble”. With “MGLQTYNAKRSFDKTPEPKGTKAEKPGSSFVIQKHDARRLHYDFRLEMDGVLKSWAVTRGPSLDPEDKRLAVHVEDHPLSYGDFEGVIPKGQYGGGTVIVWDRGIWQPIGDAGKGYRKGHLEFELEGEKLKGRWHLVRMHGKPGESRENWLLIKGDDEEARHLEHHHHHH” the “soluble on expression in E. coli” value was “soluble”. In the case of “MEKKKVTIPQVCHGHSRPVVDLFYSPITPDGFFLISASKDSHPMLRNGETGDWIGTFEGHKGAVWSSCLDNNALRAASASADFSAKLWDALTGDVLHSFEHKHIVRACAFSEDTKSLLTGGFEKILRVFDMNRLDAPPTEVDKSPGSIRTLTWLHSDQTILSSCTDIGGVRLWDVRSGKIVQTLETKSPVTSAEVSQDGRYITTADGSTVKFWDANHFGLVKSYDMPCNIESASLEPKSGEKFVAGGEDMWVRVFDFYTGEEIGCNKGHHGPVHCVRFTPTGLSYASGSEDGTIRIWQTTPANPEENETSSRRVKHSVDEVSKKIEGFHINKEGKTAEKPSDT”, the “soluble on expression in E. coli” value is reported as “soluble”. In the case of “MAEIVLTQSPGTQSLSPGERATLSCRASQSVGNNKLAWYQQRPGQAPRLLIYGASSRPSGVADRFSGSGSGTDFTLTISRLEPEDFAVYYCQQYGQSLSTFGQGTKVEVKLVPR”, the “soluble on expression in E. coli” value is reported as “soluble”. In the case of “MGSDKIHHHHHHMKKIIIVSCLMSGVLNFGYSITTESIPTCSSFLSKLLSTAKSDTLSKVKLENCTFEEFKNNYDKDKFPVEFRNNQEEKSFYRHLKERDNYAGISNLYDMWKWVRFNRGFLEQQNEKLFHVYDKLNEVGINPESLDSMSYLNLKGINENINALTESINPSVEAIKYLLPDFEKYVAAYEKLAKEGDSLSYSDFKKASGRGATTANIQQIDQRILHQFRKEMHMNTANTAAMSSLNFGNGYGVSVGAAIGGHKGQYSLALGTAYTDYQTQVNVKIALPVKQPKPSNITYGVGFVYNFQ”, the “soluble on expression in E. coli” value is reported as “not soluble”. In the case of “MGSDKIHHHHHHMLVVTTACNLDCAYCYEGGGNGQGEMMDLDTALRALDLVAASNQPFHVQLTGGEPLLAGELVFRILEYIRNNNLPATTAIQTNGVLLDHQTARRLHSFGTAVGVSVDGLPAIQEQLRGQGAATWKALAMLDSERVPFSVTTVLSSRNTRDLSTLGMALHSMPAASAIGLDLLVQKGSAAAKIGVQPPDAVTIRSGVTRLLATLDVLNAQRSRPLILRERQTVLKALGRDEARPYCQACTGSSLAVTPRGELYPCTQTLGDARFHLGTLDHPRLSGTALPDGRLPKREECAGCGLQGRCPGDCPSRLHYNGADGAGLVCALYRTICDYCLYKGEIPS”, the “soluble on expression in E. coli” value is reported as “not soluble”. With “PCCELITNISIPDDKAQNTLSEIEDAISNILGKPVAYIMSNYDYQKNLRFSGSNEGYCFVRLTSIGGINRSNNSLLADKITKILSNHLSVKPRRVYIEFRDCSAQNFAFSGSLFGGSRSHHHHHH” the “soluble on expression in E. coli” value was “soluble”. For “MGSDKIHHHHHHMNRGMKNYLSQTNYRDAMKAADIMNSNVIYATLPSTRDKVLELFKKYEISAVPVLKNSELVGIVTRKDILRKIEENQLALLMTPNPTTVDADADVKEVVKILTSTPFRRLPVVKDGKLVGIITVRDIIKKIAEMNIEKPVKSYITPYIVCVWEETPLNVVGEIMRLSNSEFVGILNDNDELVGVIDEKIMLTETLIEDFIEQTAYSSSSDTDDSWSWDSVRDYTVKYFEVSVVKLPKEPVKNFMKKPEFVYPQTSVSKCAKRMVRSDLDYIPVLDSENRLIGTVRDKDLIRVLLEV”, the “soluble on expression in E. coli” value was “not soluble”.
